Consider 2 molecules from patent US20040043378A1.

The Kd is the constant that tells how readily two partners part at equilibrium.

Test [1] deals with lysine-acetylated histone H4 peptide SGRGKGG-AcK-GLGK (Lys8 acetylated). As to the kind of experiment: NMR titration, amide chemical shift changes in 15N-HSQC spectra against ligand concentration.
For test [2], the target named is histone H4 AcK16 peptide …-AcK-RHRK (SEQ ID NO:59). As to the kind of experiment: NMR 2D 1H-15N HSQC titration; 'binds weakly'.
Chain of histone H4 AcK16 peptide …-AcK-RHRK (SEQ ID NO:59) (peptide, as listed by the source): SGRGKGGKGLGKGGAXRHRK

B1: P/CAF bromodomain (residues 719-832 of human p300/CBP-associated factor), wild-type, Q92831 719-832 (protein)
chain: SKEPRDPDQLYSTLKSILQQVKSHQSAWPFMEPVKRTEAPGYYEVIRFPMDLKTMSERLKNRYYVSKKLFMADLQRVFTNCKEYNAAESEYYKCANILEKFFFSKIKEAGLIDK
Take B1: the Kd in test [1] was 346 µM.

B2: bromodomain of P/CAF (residues 719-832 of SEQ ID NO:2), Q92831 719-832 (protein)
chain: B1 chain
B2: the Kd in test [2] is < 300 µM.
